Results reported in article PMC12371696.
Ends that are not written are not given here.

Experiments:
[1] = biological target: Trastuzumab with E5 Ecoil peptides fused at the C-termini of heavy and light chains (TZM-E5); assay: SEC-MALS; UPLC-SEC-MALS; TZM-Ex mixed with Kx-mRFP at 1:4 molar ratio (2 nmol + 8 nmol), 45 min at room temperature; BEH200 column, 0.2 M potassium phosphate, 0.2 M potassium chloride, 0.02% Tween-20, pH 7.0, 30 °C
[2] = biological target: Trastuzumab with E5 Ecoil peptides fused at the C-termini of heavy and light chains (TZM-E5)

Molecule	stoichiometry N (K5-mRFP per TZM-E5) [1]	tumor fluorescence (total radiant efficiency, area under the curve 3-336 h) after intravenous injection of the preformed TZM-E5/K5-CF750 complex in the SKOV3 xenograft mouse model ([p/s] × h /[uW/cm^2]) [2]
K5 Kcoil peptide fused to the N-terminus of monomeric red fluorescent protein (K5-mRFP) (designed binder)	4	–
KVSALKEKVSALKEKVSALKEKVSALKEKVSALKEGGC(CF750 maleimide) [K5 Kcoil peptide (KVSALKE)5-GGC conjugated to CF750 maleimide near-infrared dye (K5-CF750)]	–	4.4e+13
